# Results reported in article PMC5379210 (Scientific Reports, 2017).
# Where a chain is given by its changes, count along the chain named. Numbers in names are those of the source.
# B1: S. cerevisiae Gpi8 (23-379aa) C373A (domain or fragment, UniProt P49018 23-379, looked up)
# chain: NNTDAAHEVIATNTNNWAVLVSTSRFWFNYRHMANVLSMYRTVKRLGIPDSQIILMLSDDVACNSRNLFPGSVFNNKDHAIDLYGDSVEVDYRGYEVTVENFIRLLTDRWTEDHPKSKRLLTDENSNIFIYMTGHGGDDFLKFQDAEEIASEDIADAFQQMYEKKRYNEIFFMIDTCQANTMYSKFYSPNILAVGSSEMDESSYSHHSDVEIGVAVIDRFTYYCLDFLEQIDKNSTLTLQDLFDSFTFEKIHSHVGVRTDLFDRNPSEVLITDFFANVQNVIPDDSKPLSVSHYHHYKDHIDTAQYELNNNVLDLALETYRKNNQSSKIEKKIKDIKSTSVLDVDIDSNEAFFTSFK
# notes: S. cerevisiae Gpi8, full-length luminal construct, residues 23-379, with C373A; also called C373A mutant
# B2: S. cerevisiae Gpi8 (23-359aa) (domain or fragment, UniProt P49018 23-359, looked up)
# chain: NNTDAAHEVIATNTNNWAVLVSTSRFWFNYRHMANVLSMYRTVKRLGIPDSQIILMLSDDVACNSRNLFPGSVFNNKDHAIDLYGDSVEVDYRGYEVTVENFIRLLTDRWTEDHPKSKRLLTDENSNIFIYMTGHGGDDFLKFQDAEEIASEDIADAFQQMYEKKRYNEIFFMIDTCQANTMYSKFYSPNILAVGSSEMDESSYSHHSDVEIGVAVIDRFTYYCLDFLEQIDKNSTLTLQDLFDSFTFEKIHSHVGVRTDLFDRNPSEVLITDFFANVQNVIPDDSKPLSVSHYHHYKDHIDTAQYELNNNVLDLALETYRKNNQSSKIEKKIKDIK
# notes: S. cerevisiae Gpi8, C-terminal truncation of the luminal domain, residues 23-359; also called S. cerevisiae Gpi8 (23-359aa)^BL21
# B3: S. cerevisiae Gpi8 (23-306aa), caspase-like domain, insect cell expressed (N-glycosylated) (domain or fragment, UniProt P49018 23-306, looked up)
# chain: NNTDAAHEVIATNTNNWAVLVSTSRFWFNYRHMANVLSMYRTVKRLGIPDSQIILMLSDDVACNSRNLFPGSVFNNKDHAIDLYGDSVEVDYRGYEVTVENFIRLLTDRWTEDHPKSKRLLTDENSNIFIYMTGHGGDDFLKFQDAEEIASEDIADAFQQMYEKKRYNEIFFMIDTCQANTMYSKFYSPNILAVGSSEMDESSYSHHSDVEIGVAVIDRFTYYCLDFLEQIDKNSTLTLQDLFDSFTFEKIHSHVGVRTDLFDRNPSEVLITDFFANVQNVIPD
# modifications: N-glycosylated (two predicted N-glycosylation sites in 23-306)
# notes: The construct has an N-terminal gp67 signal peptide for secretion (pFastBac-dual); Runs as a disulfide-linked dimer; also called insect cell expressed Gpi8; not shown: 6xHis, C-terminal, kept
# B4: S. cerevisiae Gpi8 (23-306aa), E. coli BL21 expressed (domain or fragment, UniProt P49018 23-306, looked up)
# chain: B3 chain
# notes: Cloned into NdeI-XhoI sites of pET26a (so in the source); also called E. coli expressed Gpi8
# B5: S. cerevisiae Gpi8 (23-306aa) C199A (domain or fragment, UniProt P49018 23-306, looked up)
# chain: B3 chain with C177A
# B6: S. cerevisiae Gpi8 (23-306aa) C246A (domain or fragment, UniProt P49018 23-306, looked up)
# chain: B3 chain with C224A
# notes: the methods print Cys244Ala
# B7: S. cerevisiae Gpi8 (23-306aa), insect cell expressed in the presence of tunicamycin (nonglycosylated) (domain or fragment, UniProt P49018 23-306, looked up)
# chain: B3 chain
# notes: N-terminal gp67 signal peptide in the construct; also called nonglycosylated Gpi8; insect cell expressed Gpi8 in the presence of tunicamycin
# B8: S. cerevisiae Gpi8 (23-306aa), E. coli SHuffle expressed (domain or fragment, UniProt P49018 23-306, looked up)
# chain: B3 chain
# notes: Same construct as m12, other E. coli strain (constitutively expresses DsbC); also called E. coli Shuffle-expressed Gpi8
# What was measured:
# [1] = biological target: S. cerevisiae Gpi8 (23-306aa) C85A (S. cerevisiae) (UniProt P49018); experiment: SEC-MALS; C85A mutant under reducing conditions
# [2] = biological target: S. cerevisiae Gpi8 (23-306aa) C85A (S. cerevisiae) (UniProt P49018); experiment: SEC; single purified protein on Superdex 200 10/300 GL, 20 mM Tris-HCl pH 8, 150 mM NaCl, purified without reducing agent (non-reducing) or with 2.5 mM DTT; re-runs of peaks; dimer to monomers
# [3] = biological target: S. cerevisiae Gpi8 (23-337aa) (S. cerevisiae) (UniProt P49018); experiment: as above
# [4] = biological target: the molecule itself; experiment: as above
Molecule,stoichiometry N [4],also measured
S. cerevisiae Gpi8 (23-306aa) C85A (from UniProt P49018 23-306) (domain or fragment),–,stoichiometry N [1]: 2; stoichiometry N [2]: 2
S. cerevisiae Gpi8 (23-337aa) (from UniProt P49018 23-337) (domain or fragment),–,stoichiometry N [3]: 2
B1,2,–
B2,2,–
B3,2,–
B4,2,–
B5,2,–
B6,2,–
B7,2,–
B8,2,–
